According to PMC10039853:
Changes are numbered by the printed parent chain. In names and notes the source's numbering stands.

B1: anti-lysozyme VHH D3-L11, wild type G97F (protein)
chain: DVQLVESGGGSVQAGGSLRLSCAASGSTDSIEYMTWFRQAPGKAREGVAALYTHTGNTYYTDSVKGRFTISQDKAKNMAYLRMDSVKSEDTAIYTCFATRKYVPVRFALDQSSYDYWGQGTQVTVSS
B2: anti-lysozyme VHH D3-L11, wild type A79L (protein)
chain: B1 chain with A79L, F97G
B3: anti-lysozyme VHH D3-L11, wild type A79C (protein)
chain: B1 chain with A79C, F97G
B4: anti-lysozyme VHH D3-L11, wild type A79Q (protein)
chain: B1 chain with A79Q, F97G
B5: anti-lysozyme VHH D3-L11, wild type A79R (protein)
chain: B1 chain with A79R, F97G
B6: anti-lysozyme VHH D3-L11, wild type A79H (protein)
chain: B1 chain with A79H, F97G
B7: anti-lysozyme VHH D3-L11, wild type A79W (protein)
chain: B1 chain with A79W, F97G
B8: anti-lysozyme VHH D3-L11, wild type A79M (protein)
chain: B1 chain with A79M, F97G
B9: anti-lysozyme VHH D3-L11, wild type A79S (protein)
chain: B1 chain with A79S, F97G
B10: anti-lysozyme VHH D3-L11, wild type A79N (protein)
chain: B1 chain with A79N, F97G
B11: anti-lysozyme VHH D3-L11, wild type A79I (protein)
chain: B1 chain with A79I, F97G
B12: anti-lysozyme VHH D3-L11, wild type A79V (protein)
chain: B1 chain with A79V, F97G
B13: anti-lysozyme VHH D3-L11, wild type A79Y (protein)
chain: B1 chain with A79Y, F97G
B14: anti-lysozyme VHH D3-L11, wild type A79F (protein)
chain: B1 chain with A79F, F97G
B15: anti-lysozyme VHH D3-L11, wild type A79T (protein)
chain: B1 chain with A79T, F97G
B16: anti-lysozyme VHH D3-L11, wild type G26I (protein)
chain: B1 chain with G26I, F97G
B17: anti-lysozyme VHH D3-L11, wild type A24L (protein)
chain: B1 chain with A24L, F97G

These binders were tested against hen egg lysozyme, P00698 (assay: ELISA). Conditions: chain shown with the change;; parent: est. 0.90; read off a plot.
Sequence of hen egg lysozyme, P00698 (P00698 19-147): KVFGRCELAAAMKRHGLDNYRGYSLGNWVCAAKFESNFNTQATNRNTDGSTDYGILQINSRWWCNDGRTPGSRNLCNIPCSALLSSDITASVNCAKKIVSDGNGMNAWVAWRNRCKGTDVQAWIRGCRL

Question: How did the EC50 turn out when B1 was run?
Answer: 3.2 µg/mL

Same assay, conditions: chain shown with the change;; parent: est. 0.92; read off a plot

Question: B2 was tested. Which EC50 did it give?
Answer: 1.5 µg/mL

Question: How did the EC50 turn out when B3 was run?
Answer: 10 µg/mL

Question: Which EC50 does the source give for B4 here?
Answer: 9.5 µg/mL

Question: B5 was tested. Which EC50 did it give?
Answer: 31 µg/mL

Question: How did the EC50 turn out when B6 was run?
Answer: 120 µg/mL

Question: How did the EC50 turn out when B7 was run?
Answer: 1900 µg/mL

Question: How did the EC50 turn out when B8 was run?
Answer: 4.2 µg/mL

Question: For B9, which EC50 is on record?
Answer: 7.6 µg/mL

Question: Which EC50 does the source give for B10 here?
Answer: 6.7 µg/mL

Question: B11 was tested. Which EC50 did it give?
Answer: 0.92 µg/mL

Question: Which EC50 does the source give for B12 here?
Answer: 2.5 µg/mL

What follows are binders tested against hen egg lysozyme, P00698 (assay: SPR). Conditions: chain shown with the change;; parent: est. 3.1e-12; read off a plot.

Question: Which Kd does the source give for B2 here?
Answer: 0.0067 nM

Question: Which Kd does the source give for B3 here?
Answer: 0.0037 nM

Question: Which Kd does the source give for B13 here?
Answer: 0.0055 nM

Question: B4 was tested. Which Kd did it give?
Answer: 0.0072 nM

Question: For B5, which Kd is on record?
Answer: 0.026 nM

Question: With B14 as the binder, how does the Kd read?
Answer: 0.012 nM

Question: Which Kd does the source give for B6 here?
Answer: 0.023 nM

Question: B7 was tested. Which Kd did it give?
Answer: 0.015 nM

Question: For B8, which Kd is on record?
Answer: 0.0068 nM

Question: For B15, which Kd is on record?
Answer: 0.013 nM

Question: Which Kd does the source give for B9 here?
Answer: 0.012 nM

Question: For B10, which Kd is on record?
Answer: 0.0081 nM

Question: B11 was tested. Which Kd did it give?
Answer: 0.0049 nM

Question: Which Kd does the source give for B12 here?
Answer: 0.0036 nM

Same assay, conditions: chain shown with the change;; parent: est. 3.3 pM; read off a plot

Question: For B14, which Kd is on record?
Answer: 0.012 nM

Question: How did the Kd turn out when B1 was run?
Answer: 0.0062 nM

Question: How did the Kd turn out when B16 was run?
Answer: 0.026 nM

Question: For B17, which Kd is on record?
Answer: 0.045 nM
